Experiment [1] addresses T1, recombinant cynomolgus monkey C5 (cynomolgus monkey, UniProt P01031 20-1676 (human entry), limits assumed).
T1 construct: also called cynoC5
T1 chain: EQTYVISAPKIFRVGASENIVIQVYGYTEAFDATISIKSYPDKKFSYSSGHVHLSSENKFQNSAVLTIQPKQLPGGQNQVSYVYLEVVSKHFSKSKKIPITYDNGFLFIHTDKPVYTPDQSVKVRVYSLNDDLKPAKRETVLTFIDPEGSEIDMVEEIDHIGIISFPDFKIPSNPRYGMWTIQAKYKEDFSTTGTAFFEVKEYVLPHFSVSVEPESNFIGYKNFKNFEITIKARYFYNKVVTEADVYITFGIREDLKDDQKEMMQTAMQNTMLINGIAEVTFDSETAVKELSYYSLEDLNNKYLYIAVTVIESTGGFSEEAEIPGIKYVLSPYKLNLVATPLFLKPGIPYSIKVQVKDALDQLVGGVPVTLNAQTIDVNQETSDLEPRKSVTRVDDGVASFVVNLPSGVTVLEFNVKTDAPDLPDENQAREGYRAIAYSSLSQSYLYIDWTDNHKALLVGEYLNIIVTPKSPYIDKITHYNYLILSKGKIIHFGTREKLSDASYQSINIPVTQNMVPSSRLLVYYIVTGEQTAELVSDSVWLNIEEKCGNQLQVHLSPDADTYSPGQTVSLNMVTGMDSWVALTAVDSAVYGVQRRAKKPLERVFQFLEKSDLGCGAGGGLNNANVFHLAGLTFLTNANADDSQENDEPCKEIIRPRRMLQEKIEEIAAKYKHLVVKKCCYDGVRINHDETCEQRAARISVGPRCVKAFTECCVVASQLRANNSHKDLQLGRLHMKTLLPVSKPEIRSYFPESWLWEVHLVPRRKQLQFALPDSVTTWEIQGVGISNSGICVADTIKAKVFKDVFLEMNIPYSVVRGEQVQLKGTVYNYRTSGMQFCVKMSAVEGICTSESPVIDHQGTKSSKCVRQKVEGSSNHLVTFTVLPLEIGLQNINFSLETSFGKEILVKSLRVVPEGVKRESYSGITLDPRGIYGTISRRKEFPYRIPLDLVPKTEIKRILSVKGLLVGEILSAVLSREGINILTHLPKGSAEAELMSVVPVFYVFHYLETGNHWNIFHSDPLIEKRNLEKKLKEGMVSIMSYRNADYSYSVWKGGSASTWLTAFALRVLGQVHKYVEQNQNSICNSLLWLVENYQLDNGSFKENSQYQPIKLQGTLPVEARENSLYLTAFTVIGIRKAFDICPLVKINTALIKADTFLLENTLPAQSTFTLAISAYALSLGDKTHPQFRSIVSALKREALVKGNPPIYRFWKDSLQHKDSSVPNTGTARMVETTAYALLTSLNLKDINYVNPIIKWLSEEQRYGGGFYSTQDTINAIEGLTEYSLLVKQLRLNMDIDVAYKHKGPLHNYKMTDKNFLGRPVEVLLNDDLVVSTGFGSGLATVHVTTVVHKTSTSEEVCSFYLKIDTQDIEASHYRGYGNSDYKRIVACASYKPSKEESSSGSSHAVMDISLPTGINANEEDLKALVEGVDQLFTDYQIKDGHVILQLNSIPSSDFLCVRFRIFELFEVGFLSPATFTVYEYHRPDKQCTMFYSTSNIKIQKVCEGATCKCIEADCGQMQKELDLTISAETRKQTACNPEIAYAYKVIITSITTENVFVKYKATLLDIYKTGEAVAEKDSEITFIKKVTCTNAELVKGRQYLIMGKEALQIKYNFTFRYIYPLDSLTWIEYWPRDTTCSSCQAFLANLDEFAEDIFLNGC
Kind of experiment: SPR (Biacore), 37C, pH 7.4, Ab captured on ProA/G. (In general: Surface plasmon resonance follows binding to a sensor surface in real time, without labels.)
Procedure: (§1) To observe the cross-reactivity of anti-C5 antibodies against human C5 (hC5) and cynomolgus monkey C5 (cynoC5), BIACORE® kinetics analysis was performed.

In experiment [2] the target is T2, 161-340.
T2 construct: Expressed in E. coli
T2 GST fusion polypeptide: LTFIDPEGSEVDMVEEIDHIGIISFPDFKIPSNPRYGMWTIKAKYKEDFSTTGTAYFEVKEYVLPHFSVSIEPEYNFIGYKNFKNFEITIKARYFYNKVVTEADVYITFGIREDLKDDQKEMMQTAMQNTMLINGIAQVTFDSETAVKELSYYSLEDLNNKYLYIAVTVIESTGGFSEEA
The experiment can be described thus: summary drawing of the binding reactions to C5 beta-chain fragments.

For experiment [3], the target named is T3, 321-500.
T3 construct: Expressed in E. coli
T3 GST fusion polypeptide: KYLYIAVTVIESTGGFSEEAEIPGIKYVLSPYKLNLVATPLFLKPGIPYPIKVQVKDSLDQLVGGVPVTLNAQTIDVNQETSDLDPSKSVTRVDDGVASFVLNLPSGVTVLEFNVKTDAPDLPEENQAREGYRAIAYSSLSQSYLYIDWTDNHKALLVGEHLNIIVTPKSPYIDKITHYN
The experiment is described as above.

For experiment [4], the target named is T4, 481-660.
T4 construct: Expressed in E. coli
T4 GST fusion polypeptide: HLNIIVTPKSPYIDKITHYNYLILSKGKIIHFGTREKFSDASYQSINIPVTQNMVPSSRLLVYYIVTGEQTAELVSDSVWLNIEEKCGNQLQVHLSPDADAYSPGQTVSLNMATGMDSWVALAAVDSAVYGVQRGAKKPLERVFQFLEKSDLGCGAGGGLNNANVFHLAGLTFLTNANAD
The description is as above.

The target of experiment [5] is T5, C5 peptide 33-108 fused to GST-tag (human, UniProt P01031 33-108).
T5 construct: not shown: GST-tag (glutathione S-transferase); vector and linker not restated
T5 sequence (P01031 33-108): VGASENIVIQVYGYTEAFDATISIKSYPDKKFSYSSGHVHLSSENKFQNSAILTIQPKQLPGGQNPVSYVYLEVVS
The experiment is described as above.

The target in experiment [6] is T6, C5 peptide 45-111 fused to GST-tag (human, UniProt P01031 45-111).
T6 construct: not shown: GST-tag (glutathione S-transferase); vector and linker not restated
T6 sequence (P01031 45-111): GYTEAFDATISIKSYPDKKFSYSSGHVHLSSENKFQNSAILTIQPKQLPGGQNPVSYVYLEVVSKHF
The description is as above.

Experiment [7] has as its target T7, C5 peptide 45-124 fused to GST-tag (human, UniProt P01031 45-124).
T7 construct: not shown: GST-tag (glutathione S-transferase); vector and linker not restated
The experiment is described as above.

Experiment [8] concerns the target T8, C5 peptide 52-124 fused to GST-tag (human, UniProt P01031 52-124).
T8 construct: not shown: GST-tag (glutathione S-transferase); vector and linker not restated
The description is as above.

In experiment [9] the target is T9, C5 peptide 33-111 fused to GST-tag (human, UniProt P01031 33-111).
T9 construct: not shown: GST-tag (glutathione S-transferase); vector and linker not restated
T9 sequence (P01031 33-111): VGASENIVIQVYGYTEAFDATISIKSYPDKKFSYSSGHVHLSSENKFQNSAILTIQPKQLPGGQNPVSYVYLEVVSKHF
The description is as above.

Experiment [10] has as its target T1, recombinant cynomolgus monkey C5. Kind of experiment: SPR (Biacore), 37C, pH 7.4.
Procedure: as §1
Experiment [11] has the same target. The experiment can be described thus: SPR (Biacore), pH 7.4; KD on cynoC5 against KD on hC5.
Procedure: as §1
Experiment [12] has as its target T2, 161-340. The experiment can be described thus: Western blot of E. coli lysates expressing GST-fused C5 beta-chain fragments.
Procedure: (§2) Anti-C5 monoclonal antibodies (MAbs) were tested for binding to C5 β-chain-derived peptides in Western blot analysis. […] The E. coli samples were harvested after incubation with 1 mM Isopropyl β-D-1-thiogalactopyranoside (IPTG) for 5 hours at 37° C., and centrifuged at 20000×g for 1 min to obtain pellets.
The target of experiment [13] is T3, 321-500. Described as above.
Procedure: as §2
In experiment [14] the target is T4, 481-660. Described as above.
Procedure: as §2
The target of experiment [15] is T5, C5 peptide 33-108 fused to GST-tag. The experiment can be described thus: Western blot of E. coli lysates expressing GST-fused MG1-MG2-derived fragments; rhC5 (0.5 ug) as control lane.
Procedure: (§3) The anti-C5 MAbs were tested for binding to MG1-MG2 domain-derived peptides in Western blot analysis. […] The E. coli samples were harvested after incubation with 1 mM IPTG for 5 hours at 37° C., and centrifuged at 20000×g for 1 minute to obtain pellets. The pellets were suspended with the sample buffer solution (2ME+), and used for Western blot analysis.
The target of experiment [16] is T6, C5 peptide 45-111 fused to GST-tag. The description is as above.
Procedure: as §3
Experiment [17] addresses T7, C5 peptide 45-124 fused to GST-tag. Described as above.
Procedure: as §3
The target of experiment [18] is T8, C5 peptide 52-124 fused to GST-tag. The experiment is described as above.
Procedure: as §3
In experiment [19] the target is T9, C5 peptide 33-111 fused to GST-tag. The experiment is described as above.
Procedure: as §3

T8 sequence (P01031 52-124): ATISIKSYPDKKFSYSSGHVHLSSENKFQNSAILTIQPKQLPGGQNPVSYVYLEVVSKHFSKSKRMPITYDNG
T7 sequence (P01031 45-124): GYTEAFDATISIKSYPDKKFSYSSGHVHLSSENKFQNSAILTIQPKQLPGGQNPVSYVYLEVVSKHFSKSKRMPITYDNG

B1: CFA0366 (antibody, V domains shown)
VH: QSLEESGGDLVKPGASLSLTCTAAGLDFSSSYYMCWVRQAPGKGLEWIACIYAGSSGIIYYANWAKGRFTISRPSSTTVTLQMTSLTAADTATYFCATYPTYGDGGHAFNLWGPGTLVTVSS
VL: AQVLTQTPSSVSAAVGGTVTINCQSSQSVYSSDYLSWYQQKPGQPPKLLIYEASKLASGVPPRFSGSGSGTQFTLTISGVQCDDAATYYCQGTYYSSGWYFAFGGGTEVVVK
notes: Chimeric, rabbit V regions; also called CFA0366-F760G4
B1: the Kd in [1] stood at 17.9 nM. The binding result in experiment [2], in experiment [3], in experiment [4], in experiment [5], in experiment [6] and in experiment [7] was “no binding” each time. The binding result in experiment [8] and in experiment [9] was “no binding” each time.

B2: CFA0672 (antibody, V domains shown)
VH: QSVEESGGRLVTPGTPLTLTCTASGFSLSGNAINWVRQAPGKGLEWIGCIYTGSDTTYYATWAKGRFTISKTSTTVDLKIASPTTEDTATYFCARGSGLWGPGTLVTVSS
VL: DVVMTQTPASVSAPVGGTVTIKCQASQNIYSLLAWYQQKPGQPPKLLIYHTSDLASGVPSRFRGSGSGTEFTLTISDLECADAATYYCQCTAYGSSDVGGTFGGGTTVVVE
notes: Chimeric, rabbit V regions; also called CFA0672-F760G4
Consider B2, for which the “fold weaker KD toward cynoC5 than toward hC5” value is 8 fold in experiment [10] and 8 times in experiment [11]. Besides, in [1], the Kd is 2.88 nM. The binding result in experiment [5], in experiment [6], in experiment [7], in experiment [8], in experiment [9] and in [12] was “no binding” in each case. Moreover, the binding result in experiment [13] and in experiment [14] was “no binding” throughout.

B3: CFA0305 (antibody, V domains shown)
VH: QSLEESGGDLVKPGASLAVTCTASGFSSSSSYYMCWVRQAPGKGLEWIGCIYTGSGATYYASWAKGRFTISKTSSTTVTLQMTSLTVADTATYFCASDGGYVTPTHAMYLWGPGTLVTVSS
VL: DVVMTQTPASVSAAVGGTVTIKCQASQNIGSDLAWYQQKPGQPPRLLIYGASKLASGVSSRFSGSGSGKEFTLTISDLECADAVTYYCQCTFVGSSYGNAFGGGTEVVVK
notes: Chimeric, rabbit V regions; also called CFA0305-F760G4
For the molecule B3, the Kd in [1] amounted to 55.4 nM. Also, the binding result in experiment [12], in [13], in experiment [14], in [15], in experiment [16] and in experiment [17] was “no binding” in each case. For the same molecule, the binding result in experiment [18] and in experiment [19] was “no binding” each time.

One may read the Kd as the equilibrium constant for the complex coming apart.

The values above are taken from US20180002415A1 (Chugai, published 2018).
